Target: OB-RL(wt)
Assay: cell-based or functional assay

- Reporter Activity (GT1-7 cells, leptin +; 3041 without leptin): 27000
- Reporter Activity (cells co-transfected with 84569 cDNA, leptin +; 4146 without leptin): 7600
- Reporter Activity (cells co-transfected with control vector, leptin +; 4316.5 without leptin): 25000
Substance: Leptin (ligand)

Source: US20040067513A1
